Laboratory results: ChEMBL document CHEMBL1143427, “Interactions of ceftobiprole with beta-lactamases from molecular classes A to D” (Antimicrob Agents Chemother, 2007)

What was measured:
Settings in all cases: Enterobacter cloacae
[1] = substrate: CC(C)(O/N=C(\C(=O)N[C@@H]1C(=O)N2C(C(=O)[O-])=C(C[n+]3ccccc3)CS[C@H]12)c1csc(N)n1)C(=O)O
Description: (§1) Activity of Enterobacter cloacae 4080 AmpC (P99) assessed as drug hydrolysis by spectrophotometry

[2] = substrate: CC1(C)S[C@@H]2[C@H](NC(=O)Cc3ccccc3)C(=O)N2[C@H]1C(=O)O
Description: as §1

[3] = substrate: O=C(Cc1cccs1)N[C@@H]1C(=O)N2C(C(=O)[O-])=C(C[n+]3ccccc3)CS[C@H]12
Description: as §1

[4] = substrate: CO/N=C(\C(=O)N[C@@H]1C(=O)N2C(C(=O)[O-])=C(C[N+]3(C)CCCC3)CS[C@H]12)c1csc(N)n1
Description: (§2) Ratio of Kcat to Km of Enterobacter cloacae 4092 AmpC (E2) assessed as drug hydrolysis by spectrophotometry

[5] = substrate: CC(C)(O/N=C(\C(=O)N[C@@H]1C(=O)N2C(C(=O)[O-])=C(C[n+]3ccccc3)CS[C@H]12)c1csc(N)n1)C(=O)O; remark: listed apart in the source
Description: as §2

[6] = substrate: Nc1nc(/C(=N/O)C(=O)N[C@@H]2C(=O)N3C(C(=O)O)=C(/C=C4\CCN([C@@H]5CCNC5)C4=O)CS[C@H]23)ns1
Description: as §2

[7] = substrate: O=C(Cc1cccs1)N[C@@H]1C(=O)N2C(C(=O)O)=C(/C=C/c3ccc([N+](=O)[O-])cc3[N+](=O)[O-])CS[C@H]12
Description: as §2

[8] = substrate: CC1(C)S[C@@H]2[C@H](NC(=O)Cc3ccccc3)C(=O)N2[C@H]1C(=O)O; remark: listed apart in the source
Description: as §2

[9] = substrate: O=C(Cc1cccs1)N[C@@H]1C(=O)N2C(C(=O)[O-])=C(C[n+]3ccccc3)CS[C@H]12; remark: listed apart in the source
Description: as §2

[10] = substrate: CO/N=C(\C(=O)N[C@@H]1C(=O)N2C(C(=O)[O-])=C(C[N+]3(C)CCCC3)CS[C@H]12)c1csc(N)n1; remark: listed apart in the source
Description: (§3) Ratio of Kcat to Km of Enterobacter cloacae 908R AmpC assessed as drug hydrolysis by spectrophotometry

[11] = substrate: CC(C)(O/N=C(\C(=O)N[C@@H]1C(=O)N2C(C(=O)[O-])=C(C[n+]3ccccc3)CS[C@H]12)c1csc(N)n1)C(=O)O; remark: listed apart in the source
Description: as §3

[12] = substrate: Nc1nc(/C(=N/O)C(=O)N[C@@H]2C(=O)N3C(C(=O)O)=C(/C=C4\CCN([C@@H]5CCNC5)C4=O)CS[C@H]23)ns1; remark: listed apart in the source
Description: as §3

[13] = substrate: CC1(C)S[C@@H]2[C@H](NC(=O)Cc3ccccc3)C(=O)N2[C@H]1C(=O)O; remark: listed apart in the source
Description: as §3

[14] = substrate: O=C(Cc1cccs1)N[C@@H]1C(=O)N2C(C(=O)[O-])=C(C[n+]3ccccc3)CS[C@H]12; remark: listed apart in the source
Description: as §3

[15] = substrate: CO/N=C(\C(=O)N[C@@H]1C(=O)N2C(C(=O)[O-])=C(C[N+]3(C)CCCC3)CS[C@H]12)c1csc(N)n1; remark: listed apart in the source
Description: (§4) Ratio of Kcat to Km of Enterobacter cloacae 4080 AmpC (P99) assessed as drug hydrolysis by spectrophotometry

[16] = substrate: CC(C)(O/N=C(\C(=O)N[C@@H]1C(=O)N2C(C(=O)[O-])=C(C[n+]3ccccc3)CS[C@H]12)c1csc(N)n1)C(=O)O; remark: listed apart in the source
Description: as §4

[17] = substrate: Nc1nc(/C(=N/O)C(=O)N[C@@H]2C(=O)N3C(C(=O)O)=C(/C=C4\CCN([C@@H]5CCNC5)C4=O)CS[C@H]23)ns1; remark: listed apart in the source
Description: as §4

[18] = substrate: CC1(C)S[C@@H]2[C@H](NC(=O)Cc3ccccc3)C(=O)N2[C@H]1C(=O)O; remark: listed apart in the source
Description: as §4

[19] = substrate: O=C(Cc1cccs1)N[C@@H]1C(=O)N2C(C(=O)[O-])=C(C[n+]3ccccc3)CS[C@H]12; remark: listed apart in the source
Description: as §4

[20] = substrate: CO/N=C(\C(=O)N[C@@H]1C(=O)N2C(C(=O)[O-])=C(C[N+]3(C)CCCC3)CS[C@H]12)c1csc(N)n1; remark: listed apart in the source
Description: (§5) Activity of Enterobacter cloacae 4092 AmpC (E2) assessed as drug hydrolysis by spectrophotometry

[21] = substrate: CC(C)(O/N=C(\C(=O)N[C@@H]1C(=O)N2C(C(=O)[O-])=C(C[n+]3ccccc3)CS[C@H]12)c1csc(N)n1)C(=O)O; remark: listed apart in the source
Description: as §5

[22] = substrate: Nc1nc(/C(=N/O)C(=O)N[C@@H]2C(=O)N3C(C(=O)O)=C(/C=C4\CCN([C@@H]5CCNC5)C4=O)CS[C@H]23)ns1; remark: listed apart in the source
Description: as §5

[23] = substrate: O=C(Cc1cccs1)N[C@@H]1C(=O)N2C(C(=O)O)=C(/C=C/c3ccc([N+](=O)[O-])cc3[N+](=O)[O-])CS[C@H]12; remark: listed apart in the source
Description: as §5

[24] = substrate: CC1(C)S[C@@H]2[C@H](NC(=O)Cc3ccccc3)C(=O)N2[C@H]1C(=O)O; remark: listed apart in the source
Description: as §5

[25] = substrate: O=C(Cc1cccs1)N[C@@H]1C(=O)N2C(C(=O)[O-])=C(C[n+]3ccccc3)CS[C@H]12; remark: listed apart in the source
Description: as §5

B1: Beta-lactamase (Enterobacter cloacae), P05364 (protein)
chain: MMRKSLCCALLLGISCSALATPVSEKQLAEVVANTITPLMKAQSVPGMAVAVIYQGKPHYYTFGKADIAANKPVTPQTLFELGSISKTFTGVLGGDAIARGEISLDDAVTRYWPQLTGKQWQGIRMLDLATYTAGGLPLQVPDEVTDNASLLRFYQNWQPQWKPGTTRLYANASIGLFGALAVKPSGMPYEQAMTTRVLKPLKLDHTWINVPKAEEAHYAWGYRDGKAVRVSPGMLDAQAYGVKTNVQDMANWVMANMAPENVADASLKQGIALAQSRYWRIGSMYQGLGWEMLNWPVEANTVVEGSDSKVALAPLPVAEVNPPAPPVKASWVHKTGSTGGFGSYVAFIPEKQIGIVMLANTSYPNPARVEAAYHILEALQ
[1]
  Km: 2.9 µM
  kcat: 0.021 s⁻¹
[2]
  Km: 4.7 µM
  kcat: 32 s⁻¹
[3]
  Km: 330 µM
  kcat: 2500 s⁻¹
[4]
  kcat/Km: < 3.3e-05 s⁻¹ µM⁻¹
[5]
  kcat/Km: 0.0015 s⁻¹ µM⁻¹
[6]
  kcat/Km: < 0.0022 s⁻¹ µM⁻¹
[7]
  kcat/Km: 10 s⁻¹ µM⁻¹
[8]
  kcat/Km: 7.8 s⁻¹ µM⁻¹
[9]
  kcat/Km: 1.5 s⁻¹ µM⁻¹
[10]
  kcat/Km: 0.075 s⁻¹ µM⁻¹
[11]
  kcat/Km: 0.66 s⁻¹ µM⁻¹
[12]
  kcat/Km: 0.038 s⁻¹ µM⁻¹
[13]
  kcat/Km: 8.8 s⁻¹ µM⁻¹
[14]
  kcat/Km: 8.9 s⁻¹ µM⁻¹
[15]
  kcat/Km: 0.004 s⁻¹ µM⁻¹
[16]
  kcat/Km: 0.0072 s⁻¹ µM⁻¹
[17]
  kcat/Km: 0.022 s⁻¹ µM⁻¹
[18]
  kcat/Km: 6.8 s⁻¹ µM⁻¹
[19]
  kcat/Km: 7.6 s⁻¹ µM⁻¹
[20]
  Km: > 630 µM
  kcat: < 0.021 s⁻¹
[21]
  Km: 110 µM
  kcat: 0.16 s⁻¹
[22]
  Km: 26 µM
  kcat: < 0.057 s⁻¹
[23]
  Km: 56 µM
  kcat: 570 s⁻¹
[24]
  Km: 8.3 µM
  kcat: 65 s⁻¹
[25]
  Km: 480 µM
  kcat: 690 s⁻¹
